# Test results from publication PMC9352680, “A comprehensive thermodynamic model for RNA binding by the Saccharomyces cerevisiae Pumilio protein PUF4”.
# Target: T1, PUF4 RNA-binding domain (Saccharomyces cerevisiae, UniProt P25339 537-888)
# T1 sequence: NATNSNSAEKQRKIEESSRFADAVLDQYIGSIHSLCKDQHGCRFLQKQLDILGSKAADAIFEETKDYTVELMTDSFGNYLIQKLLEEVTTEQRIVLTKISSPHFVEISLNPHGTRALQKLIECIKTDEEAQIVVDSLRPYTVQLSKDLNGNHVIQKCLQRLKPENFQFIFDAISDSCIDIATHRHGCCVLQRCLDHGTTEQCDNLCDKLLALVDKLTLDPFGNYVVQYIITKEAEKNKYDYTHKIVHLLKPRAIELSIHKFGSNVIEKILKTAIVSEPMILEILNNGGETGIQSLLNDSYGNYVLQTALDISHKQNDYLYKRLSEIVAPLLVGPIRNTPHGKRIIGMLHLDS
# Assay: Mg; RNA-MaP; 20 mM Na-HEPES pH 7.4, 30 mM KOAc, 0.75 mM MgCl2, 0.1% Tween-20, 5% glycerol, 0.1 mg/mL BSA, 2 mM DTT; 25 C; 0.0125-409.6 nM protein
# Settings: tags: N-His6-TEV cleaved; C-SNAP kept, Cy3B-labelled; label: tethered on chip by stalled RNA polymerase
row,Binder,Kd [nM]
1,UCUCUUUGUAAUCUAUCUCUU (ssRNA) [Ic_S1_P4E.1_K4.1_C4.1_H4.1_A4.1_[T5A]_[A6T]_[T7C]_F4.1_T4.1],8.88
2,UCUCUUUGUUUAUGUCUCUU (ssRNA) [Ib_S1_P3E.1_K3.1_C3.1_H3.1_[A4T]_A3.1_F3.1_[A8G]_T3.1],1460
3,UCUCUUUGUAAUUUGUCUCUU (ssRNA) [Ic_S1_P4E.1_K4.1_C4.1_H4.1_A4.1_[T5A]_[A6T]_F4.1_[A9G]_T4.1],28.5
4,UCUCUUUGUAAAGCUUCUCUU (ssRNA) [Ic_S1_P4E.1_K4.1_C4.1_H4.1_A4.1_[T5A]_[T7G]_F4.1_[T8C]_[A9T]_T4.1],658
5,UCUCUUUGUAAUGUGUCUCUU (ssRNA) [Ic_S1_P4E.1_K4.1_C4.1_H4.1_A4.1_[T5A]_[A6T]_[T7G]_F4.1_[A9G]_T4.1],105
6,UCUCUUUGUAAACGCUCUCUU (ssRNA) [Ic_S1_P4E.1_K4.1_C4.1_H4.1_A4.1_[T5A]_[T7C]_F4.1_[T8G]_[A9C]_T4.1],833
7,UCUCUUUGUUUAUCUCUCUU (ssRNA) [Ib_S1_P3E.1_K3.1_C3.1_H3.1_[A4T]_A3.1_F3.1_[A8C]_T3.1],1280
8,UCUCUUUGUAAAGCCUCUCUU (ssRNA) [Ic_S1_P4E.1_K4.1_C4.1_H4.1_A4.1_[T5A]_[T7G]_F4.1_[T8C]_[A9C]_T4.1],1020
9,UCUCUUUGUAAUUAUUCUCUU (ssRNA) [Ic_S1_P4E.1_K4.1_C4.1_H4.1_A4.1_[T5A]_[A6T]_F4.1_[T8A]_[A9T]_T4.1],92.4
10,UCUCUUUGUAAUGGUUCUCUU (ssRNA) [Ic_S1_P4E.1_K4.1_C4.1_H4.1_A4.1_[T5A]_[A6T]_[T7G]_F4.1_[T8G]_[A9T]_T4.1],764
11,UCUCUUUGUAAUUGAUCUCUU (ssRNA) [Ic_S1_P4E.1_K4.1_C4.1_H4.1_A4.1_[T5A]_[A6T]_F4.1_[T8G]_T4.1],712
12,UCUCUUUGUCUAUUUCUCUU (ssRNA) [Ib_S1_P3E.1_K3.1_C3.1_H3.1_[A4C]_A3.1_F3.1_[A8T]_T3.1],823
13,UCUCUUUGUAAUAACUCUCUU (ssRNA) [Ic_S1_P4E.1_K4.1_C4.1_H4.1_A4.1_[T5A]_[A6T]_[T7A]_F4.1_[T8A]_[A9C]_T4.1],642
14,UCUCUUUGUAACUAAUCUCUU (ssRNA) [Ic_S1_P4E.1_K4.1_C4.1_H4.1_A4.1_[T5A]_[A6C]_F4.1_[T8A]_T4.1],173
15,UCUCUUUGUAAUUGUUCUCUU (ssRNA) [Ic_S1_P4E.1_K4.1_C4.1_H4.1_A4.1_[T5A]_[A6T]_F4.1_[T8G]_[A9T]_T4.1],98.4
16,UCUCUUUGUAAUCAUUCUCUU (ssRNA) [Ic_S1_P4E.1_K4.1_C4.1_H4.1_A4.1_[T5A]_[A6T]_[T7C]_F4.1_[T8A]_[A9T]_T4.1],413
17,UCUCUUUGUAACUUCUCUCUU (ssRNA) [Ic_S1_P4E.1_K4.1_C4.1_H4.1_A4.1_[T5A]_[A6C]_F4.1_[A9C]_T4.1],113
18,UCUCUUUGUAAUUGCUCUCUU (ssRNA) [Ic_S1_P4E.1_K4.1_C4.1_H4.1_A4.1_[T5A]_[A6T]_F4.1_[T8G]_[A9C]_T4.1],682
19,UCUCUUUGUAAACAAUCUCUU (ssRNA) [Ic_S1_P4E.1_K4.1_C4.1_H4.1_A4.1_[T5A]_[T7C]_F4.1_[T8A]_T4.1],57.4
20,UCUCUUUGUAAUAUAUCUCUU (ssRNA) [Ic_S1_P4E.1_K4.1_C4.1_H4.1_A4.1_[T5A]_[A6T]_[T7A]_F4.1_T4.1],2.68

row,Binder,Kd [nM]
1,UCUCUUUGUAAUCCCUCUCUU (ssRNA) [Ic_S1_P4E.1_K4.1_C4.1_H4.1_A4.1_[T5A]_[A6T]_[T7C]_F4.1_[T8C]_[A9C]_T4.1],1070
2,UCUCUUUGUAAUCGCUCUCUU (ssRNA) [Ic_S1_P4E.1_K4.1_C4.1_H4.1_A4.1_[T5A]_[A6T]_[T7C]_F4.1_[T8G]_[A9C]_T4.1],1820
3,UCUCUUUGUAAUAGCUCUCUU (ssRNA) [Ic_S1_P4E.1_K4.1_C4.1_H4.1_A4.1_[T5A]_[A6T]_[T7A]_F4.1_[T8G]_[A9C]_T4.1],941
4,UCUCUUUGUAAACAGUCUCUU (ssRNA) [Ic_S1_P4E.1_K4.1_C4.1_H4.1_A4.1_[T5A]_[T7C]_F4.1_[T8A]_[A9G]_T4.1],508
5,UCUCUUUGUAAUUCUUCUCUU (ssRNA) [Ic_S1_P4E.1_K4.1_C4.1_H4.1_A4.1_[T5A]_[A6T]_F4.1_[T8C]_[A9T]_T4.1],123
6,UCUCUUUGUAAUAUCUCUCUU (ssRNA) [Ic_S1_P4E.1_K4.1_C4.1_H4.1_A4.1_[T5A]_[A6T]_[T7A]_F4.1_[A9C]_T4.1],36
7,UCUCUUUGUAAUUAAUCUCUU (ssRNA) [Ic_S1_P4E.1_K4.1_C4.1_H4.1_A4.1_[T5A]_[A6T]_F4.1_[T8A]_T4.1],216
8,UCUCUUUGUAAUCUGUCUCUU (ssRNA) [Ic_S1_P4E.1_K4.1_C4.1_H4.1_A4.1_[T5A]_[A6T]_[T7C]_F4.1_[A9G]_T4.1],76.5
9,UCUCUUUGUAAACCGUCUCUU (ssRNA) [Ic_S1_P4E.1_K4.1_C4.1_H4.1_A4.1_[T5A]_[T7C]_F4.1_[T8C]_[A9G]_T4.1],951
10,UCUCUUUGUAAAGUCUCUCUU (ssRNA) [Ic_S1_P4E.1_K4.1_C4.1_H4.1_A4.1_[T5A]_[T7G]_F4.1_[A9C]_T4.1],406
11,UCUCUUUGUAAUUUUUCUCUU (ssRNA) [Ic_S1_P4E.1_K4.1_C4.1_H4.1_A4.1_[T5A]_[A6T]_F4.1_[A9T]_T4.1],34.7
12,UCUCUUUGUAUCUAUCUCUU (ssRNA) [Ic_S1_P3E.1_K3.1_C3.1_H3.1_A3.1_[A6C]_F3.1_T3.1],48.6
13,UCUCUUUGUAAUCCUUCUCUU (ssRNA) [Ic_S1_P4E.1_K4.1_C4.1_H4.1_A4.1_[T5A]_[A6T]_[T7C]_F4.1_[T8C]_[A9T]_T4.1],484
14,UCUCUUUGUAAAGCGUCUCUU (ssRNA) [Ic_S1_P4E.1_K4.1_C4.1_H4.1_A4.1_[T5A]_[T7G]_F4.1_[T8C]_[A9G]_T4.1],2010
15,UCUCUUUGUAAACCCUCUCUU (ssRNA) [Ic_S1_P4E.1_K4.1_C4.1_H4.1_A4.1_[T5A]_[T7C]_F4.1_[T8C]_[A9C]_T4.1],1020
16,UCUCUUUGUAACUUGUCUCUU (ssRNA) [Ic_S1_P4E.1_K4.1_C4.1_H4.1_A4.1_[T5A]_[A6C]_F4.1_[A9G]_T4.1],62.5
17,UCUCUUUGUAAUCUUUCUCUU (ssRNA) [Ic_S1_P4E.1_K4.1_C4.1_H4.1_A4.1_[T5A]_[A6T]_[T7C]_F4.1_[A9T]_T4.1],56.3
18,UCUCUUUGUAAUAUGUCUCUU (ssRNA) [Ic_S1_P4E.1_K4.1_C4.1_H4.1_A4.1_[T5A]_[A6T]_[T7A]_F4.1_[A9G]_T4.1],12.5
19,UCUCUUUGUAAUGUAUCUCUU (ssRNA) [Ic_S1_P4E.1_K4.1_C4.1_H4.1_A4.1_[T5A]_[A6T]_[T7G]_F4.1_T4.1],11.2
20,UCUCUUUGUAACUUUUCUCUU (ssRNA) [Ic_S1_P4E.1_K4.1_C4.1_H4.1_A4.1_[T5A]_[A6C]_F4.1_[A9T]_T4.1],58.3

row,Binder,Kd [nM]
1,UCUCUUUGUUUAUUUCUCUU (ssRNA) [Ib_S1_P3E.1_K3.1_C3.1_H3.1_[A4T]_A3.1_F3.1_[A8T]_T3.1],426
2,UCUCUUUGUAAAGCAUCUCUU (ssRNA) [Ic_S1_P4E.1_K4.1_C4.1_H4.1_A4.1_[T5A]_[T7G]_F4.1_[T8C]_T4.1],387
3,UCUCUUUGUAAUGUUUCUCUU (ssRNA) [Ic_S1_P4E.1_K4.1_C4.1_H4.1_A4.1_[T5A]_[A6T]_[T7G]_F4.1_[A9T]_T4.1],95.2
4,UCUCUUUGUAAUUACUCUCUU (ssRNA) [Ic_S1_P4E.1_K4.1_C4.1_H4.1_A4.1_[T5A]_[A6T]_F4.1_[T8A]_[A9C]_T4.1],670
5,UCUCUUUGUAAUUAGUCUCUU (ssRNA) [Ic_S1_P4E.1_K4.1_C4.1_H4.1_A4.1_[T5A]_[A6T]_F4.1_[T8A]_[A9G]_T4.1],126
6,UCUCUUUGUAAUCUCUCUCUU (ssRNA) [Ic_S1_P4E.1_K4.1_C4.1_H4.1_A4.1_[T5A]_[A6T]_[T7C]_F4.1_[A9C]_T4.1],74.6
7,UCUCUUUGUAAUUGGUCUCUU (ssRNA) [Ic_S1_P4E.1_K4.1_C4.1_H4.1_A4.1_[T5A]_[A6T]_F4.1_[T8G]_[A9G]_T4.1],1880
8,UCUCUUUGUAAUGUCUCUCUU (ssRNA) [Ic_S1_P4E.1_K4.1_C4.1_H4.1_A4.1_[T5A]_[A6T]_[T7G]_F4.1_[A9C]_T4.1],476
9,UCUCUUUGUAAUUUCUCUCUU (ssRNA) [Ic_S1_P4E.1_K4.1_C4.1_H4.1_A4.1_[T5A]_[A6T]_F4.1_[A9C]_T4.1],83.9
10,UCUCUUUGUAAUCGAUCUCUU (ssRNA) [Ic_S1_P4E.1_K4.1_C4.1_H4.1_A4.1_[T5A]_[A6T]_[T7C]_F4.1_[T8G]_T4.1],1160
11,UCUCUUUGUAAACAUUCUCUU (ssRNA) [Ic_S1_P4E.1_K4.1_C4.1_H4.1_A4.1_[T5A]_[T7C]_F4.1_[T8A]_[A9T]_T4.1],165
12,UCUCUUUGUAAUUCGUCUCUU (ssRNA) [Ic_S1_P4E.1_K4.1_C4.1_H4.1_A4.1_[T5A]_[A6T]_F4.1_[T8C]_[A9G]_T4.1],517
13,UCUCUUUGUAAUGGCUCUCUU (ssRNA) [Ic_S1_P4E.1_K4.1_C4.1_H4.1_A4.1_[T5A]_[A6T]_[T7G]_F4.1_[T8G]_[A9C]_T4.1],2140
14,UCUCUUUGUAAACACUCUCUU (ssRNA) [Ic_S1_P4E.1_K4.1_C4.1_H4.1_A4.1_[T5A]_[T7C]_F4.1_[T8A]_[A9C]_T4.1],565
15,UCUCUUUGUAAUGCAUCUCUU (ssRNA) [Ic_S1_P4E.1_K4.1_C4.1_H4.1_A4.1_[T5A]_[A6T]_[T7G]_F4.1_[T8C]_T4.1],642
16,UCUCUUUGUGUAUCUCUCUU (ssRNA) [Ib_S1_P3E.1_K3.1_C3.1_H3.1_[A4G]_A3.1_F3.1_[A8C]_T3.1],63.7
17,UCUCUUUGUAAUAAUUCUCUU (ssRNA) [Ic_S1_P4E.1_K4.1_C4.1_H4.1_A4.1_[T5A]_[A6T]_[T7A]_F4.1_[T8A]_[A9T]_T4.1],172
18,UCUCUUUGUAAUACUUCUCUU (ssRNA) [Ic_S1_P4E.1_K4.1_C4.1_H4.1_A4.1_[T5A]_[A6T]_[T7A]_F4.1_[T8C]_[A9T]_T4.1],603
19,UCUCUUUGUAAUACCUCUCUU (ssRNA) [Ic_S1_P4E.1_K4.1_C4.1_H4.1_A4.1_[T5A]_[A6T]_[T7A]_F4.1_[T8C]_[A9C]_T4.1],713
